What was measured:
[1] = target: LY6A (C57BL/6J allele), expressed from Ly6a cDNA in HEK293T cells (mouse (C57BL/6J)) (UniProt P05533); assay: bound vector genome assay (qPCR of viral genomes on cells); HEK293T cells transfected with Ly6 cDNA or left untransfected; 48 h later chilled to 4°C, recombinant AAV at 10^5 vg/cell for one hour, washed three times with cold PBS; vector genomes normalized to cell genomes
[2] = target: LY6A, endogenous on primary brain microvascular endothelial cells of C57BL/6 mice (mouse (endogenous in C57BL/6 BMVECs)) (UniProt P05533); assay: bound vector genome assay (qPCR of viral genomes on cells); primary BMVECs of C57BL/6 mice treated with SaCas9 vectors with sgRNAs against Ly6a or Ly6c1 or no sgRNA; 4°C, one hour, AAV at 10^6 vg/cell; normalized to cells treated with a vector lacking a sgRNA

Substance | fold increase in binding to cells on Ly6a expression [1] [fold] | reduction in binding to BMVECs on Ly6a disruption (~50% reduction of LY6A) [2] [%]
AAV-PHP.eB capsid (engineered AAV9 variant, further evolved from AAV-PHP.B) (from UniProt Q6JC40 1-736; Q6JC40 1-736; Q6JC40 1-736) (complex) | > 50 | 50
AAV-PHP.B capsid (engineered AAV9 variant) (from UniProt Q6JC40 1-736; Q6JC40 1-736; Q6JC40 1-736) (complex) | > 50 | –
